Measurements: article PMC3606566, “Structure of Pseudomonas aeruginosa inosine 5′-monophosphate dehydrogenase” (Acta Crystallographica Section F: Structural Biology and …, 2013)

Biological target: the molecule itself
Experiment: crystal structure; apo PaIMPDH, sitting-drop vapour diffusion, 0.2 M sodium acetate pH 4.5, 40% MPD, room temperature; space group I4, one subunit in the asymmetric unit, tetramer by the crystallographic fourfold axis; 2.25 Å

B1: Pseudomonas aeruginosa inosine 5′-monophosphate dehydrogenase (enzyme, UniProt Q9HXM5 1-489, looked up)
chain: MLRISQEALTFDDVLLIPGYSEVLPKDVSLKTRLTRGIELNIPLVSAAMDTVTEARLAIAMAQEGGIGIIHKNMGIEQQAAEVRKVKKHETAIVRDPVTVTPSTKIIELLQMAREYGFSGFPVVEQGELVGIVTGRDLRVKPNAGDTVAAIMTPKDKLVTAREGTPLEEMKAKLYENRIEKMLVVDENFYLRGLVTFRDIEKAKTYPLASKDEQGRLRVGAAVGTGADTGERVAALVAAGVDVVVVDTAHGHSKGVIERVRWVKQTFPDVQVIGGNIATAEAAKALAEAGADAVKVGIGPGSICTTRIVAGVGVPQISAIANVAAALEGTGVPLIADGGIRFSGDLAKAMVAGAYCVMMGSMFAGTEEAPGEIELFQGRSYKSYRGMGSLGAMSGSQGSSDRYFQDASAGAEKLVPEGIEGRVPYKGALSAIVHQLMGGLRAAMGYTGSADIQQMRTQPQFVRITGAGMAESHVHDVQITKEAPNYRVG
notes: Inosine 5′-monophosphate dehydrogenase of Pseudomonas aeruginosa, full-length gene PA3770, amino acids 1-489, synthesised and codon-optimised for E. coli; Modified pET15b: N-terminal His tag followed by a TEV protease cleavage site; The His tag was still present at size-exclusion chromatography; The model holds only residues 1-91, 205-370 and 426-467; also called PaIMPDH; IMPDH; not shown: His …
Question: How did the “stoichiometry N” value turn out when B1 was run?
Answer: The value was 4.
